A word on the Km: it is the concentration of substrate that gives half-maximal velocity. The kcat is the maximal rate divided by the concentration of active sites. One may read the kcat/Km as the second-order rate constant that governs catalysis at low substrate concentration. As usually defined, the stoichiometry N is a count of units in the complex or per binding partner.

Substrate in data set [1]: [H][C@@]12COP(=O)(O)O[C@@]1([H])[C@@H](O)[C@H](n1cnc3c(=O)[nH]c(N)nc31)O2
Put plainly: [3H]cGMP hydrolysis, scintillation counting, Michaelis-Menten fit. The format is biochemical, Saccharomyces cerevisiae. The note with it: 50 mM Tris-HCl pH 7.5, room temperature, no added ion, labelled compound.

The data set “SEC” concerns the molecule itself. Put plainly: SEC. For orientation: Size exclusion chromatography separates by hydrodynamic size, large species first.

B1: yeast phosphodiesterase-1 (yPDE1), full length (residues 1-369) (enzyme, Saccharomyces cerevisiae, UniProt P22434 1-369, looked up)
chain: MVVFEITILGANGGPTEYGTQCFILKPARTEDPELIAVDGGAGMYQLREMLVQGRNENEGDDELVPSFYEHDREPIEFFIDSKLNIQKGLSKSLLQSLKRQGEHFESANTMKKTYEVFQGITDYYITHPHLDHISGLVVNSPSIYEQENSKKKTIWGLPHTIDVLQKHVFNDLIWPDLTAERSRKLKLKCLNPKEVQKCTIFPWDVIPFKVHHGIGVKTGAPVYSTFYIFRDRKSKDCIIVCGDVEQDRRESEESLLEEFWSYVAENIPLVHLKGILVECSCPLSSKPEQLYGHLSPIYLINELSNLNTLYNSSKGLSGLNVIVTHVKSTPAKRDPRLTILEELRFLAEERNLGDLRISIALEGHTLFL
Turning to B1, in data set [1], the Km amounted to 104.7 ± 10.2 µM, the turnover number (kcat) turned out to be 11.8 ± 1 s⁻¹ and the specificity constant (kcat/Km) amounted to 113000 M⁻¹ s⁻¹. The “stoichiometry N” value in “SEC” was 2.

Source of the values: paper PMC4144708 (Biochemistry, 2014).
